Values quoted from earlier work, collected in publication PMC11747410.
Where two headings read alike, the source gives them in different places.

Assays:
[1] = molecular target: CD166/ALCAM (Homo sapiens) (UniProt Q13740)
[2] = molecular target: CD166/ALCAM (Homo sapiens) (UniProt Q13740); remark: listed apart in the source

Row | Substance | Kd [1] [µM] | Kd [2] [µM]
1 | CD6 (from UniProt P30203) | 0.7 | –
2 | CD166/ALCAM (from UniProt Q13740) | – | 38.5
